Experiments:
[1] = target: neurotrophin-4; assay: SPR (BiaCore), TrkIg2 amine-coupled to CM5 chip, NT-4 passed over at 1-100 nM, 1:1 Langmuir model
[2] = target: brain derived neurotrophic factor; assay: SPR (BiaCore), TrkIg2 amine-coupled to CM5 chip, BDNF passed over at 0.1-25 nM, 1:1 Langmuir model
[3] = target: nerve growth factor; assay: SPR (BiaCore), TrkIg2 amine-coupled to CM5 chip, NGF passed over at 0.1-100 nM, 1:1 Langmuir model

Kd [1]	Kd [2]	Kd [3]	Substance
0.26 nM	0.79 nM		TrkBIg26His (from UniProt Q16620) (receptor)
		0.0792 nM	TrkAIg2.66His (from UniProt P04629) (receptor)
		0.0926 nM	TrkAIg26His (from UniProt P04629-2) (receptor)

Source: US20050070690A1
